# Measured values published in US20190225650A1, “PEPTIDOMIMETIC MACROCYCLES AND USE THEREOF IN REGULATING HIF1ALPHA” (AILERON THERAPEUTICS, INC., priority 2013, published 2019).
# Bridge positions count the residues as written; N and C are the ends. Square brackets hold non-standard residues; d marks the D form. Ala(3-Me-diazirin-3-yl) = CC1(C[C@H](N)C(=O)O)N=N1; S5 = C=CCCC[C@](C)(N)C(=O)O; Nle = CCCC[C@H](N)C(=O)O
# Biological target: T1, His6-tagged p300 (AA 323-423) (UniProt Q09472 323-423)
# T1 construct: range 323-423; also called p300-CH; not shown: His6 tag
# T1 sequence (Q09472 323-423 limits assumed): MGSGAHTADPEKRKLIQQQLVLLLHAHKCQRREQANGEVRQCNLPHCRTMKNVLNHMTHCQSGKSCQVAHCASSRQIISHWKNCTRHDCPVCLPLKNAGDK
# Test: TR-FRET HIF1a/p300 displacement; grade = IC50 >700 nM
# Outline: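 Peptides competed with HIF1α C-terminal transactivation domain for His6-p300-CH (complex 300 nM final) during 1 h at RT in 20 mM HEPES pH 7.4, 150 mM NaCl, 7.5 mM CHAPS, 1 mM DTT. Anti-Flag-K (0.5 μM) and anti-His-D2 (4 nM) were added for 2 h. IC50 was derived from the TR-FRET ratio by one-site fit.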
row,Binder,IC50
1,Ac-FIDEEVLM[S5]LVI[S5]MG-NH2 (staple 9-13; SMILES CC[C@H](C)[C@H](NC(=O)[C@H](Cc1ccccc1)NC(C)=O)C(=O)N[C@@H](CC(=O)O)C(=O)N[C@@H](CCC(=O)O)C(=O)N[C@@H](CCC(=O)O)C(=O)N[C@H](C(=O)N[C@@H](CC(C)C)C(=O)N[C@@H](CCSC)C(=O)N[C@@]1(C)CCCC=CCCC[C@@](C)(C(=O)N[C@@H](CCSC)C(=O)NCC(N)=O)NC(=O)[C@H]([C@@H](C)CC)NC(=O)[C@H](C(C)C)NC(=O)[C@H](CC(C)C)NC1=O)C(C)C) [SP-99],> 700 nM
2,Ac-FIDEEVLM[S5]LVI[S5]MALD-NH2 (staple 9-13; SMILES CC[C@H](C)[C@H](NC(=O)[C@H](Cc1ccccc1)NC(C)=O)C(=O)N[C@@H](CC(=O)O)C(=O)N[C@@H](CCC(=O)O)C(=O)N[C@@H](CCC(=O)O)C(=O)N[C@H](C(=O)N[C@@H](CC(C)C)C(=O)N[C@@H](CCSC)C(=O)N[C@@]1(C)CCCC=CCCC[C@@](C)(C(=O)N[C@@H](CCSC)C(=O)N[C@@H](C)C(=O)N[C@@H](CC(C)C)C(=O)N[C@@H](CC(=O)O)C(N)=O)NC(=O)[C@H]([C@@H](C)CC)NC(=O)[C@H](C(C)C)NC(=O)[C@H](CC(C)C)NC1=O)C(C)C) [SP-101],> 700 nM
3,Ac-FIDEEVLM[S5]LVI[S5]MGLD-NH2 (staple 9-13; SMILES CC[C@H](C)[C@H](NC(=O)[C@H](Cc1ccccc1)NC(C)=O)C(=O)N[C@@H](CC(=O)O)C(=O)N[C@@H](CCC(=O)O)C(=O)N[C@@H](CCC(=O)O)C(=O)N[C@H](C(=O)N[C@@H](CC(C)C)C(=O)N[C@@H](CCSC)C(=O)N[C@@]1(C)CCCC=CCCC[C@@](C)(C(=O)N[C@@H](CCSC)C(=O)NCC(=O)N[C@@H](CC(C)C)C(=O)N[C@@H](CC(=O)O)C(N)=O)NC(=O)[C@H]([C@@H](C)CC)NC(=O)[C@H](C(C)C)NC(=O)[C@H](CC(C)C)NC1=O)C(C)C) [SP-98],> 700 nM
4,Ac-FIDEEVLM[S5]LVI[S5]MGLDRI-NH2 (staple 9-13; SMILES CC[C@H](C)[C@H](NC(=O)[C@H](CCCNC(=N)N)NC(=O)[C@H](CC(=O)O)NC(=O)[C@H](CC(C)C)NC(=O)CNC(=O)[C@H](CCSC)NC(=O)[C@]1(C)CCCC=CCCC[C@](C)(NC(=O)[C@H](CCSC)NC(=O)[C@H](CC(C)C)NC(=O)[C@@H](NC(=O)[C@H](CCC(=O)O)NC(=O)[C@H](CCC(=O)O)NC(=O)[C@H](CC(=O)O)NC(=O)[C@@H](NC(=O)[C@H](Cc2ccccc2)NC(C)=O)[C@@H](C)CC)C(C)C)C(=O)N[C@@H](CC(C)C)C(=O)N[C@@H](C(C)C)C(=O)N[C@@H]([C@@H](C)CC)C(=O)N1)C(N)=O) [SP-97],> 700 nM
5,Ac-FIDEE[S5]LMS[S5]VIEMGLDRIKELPELWL-NH2 (staple 6-10; SMILES CC[C@H](C)[C@H](NC(=O)[C@H](Cc1ccccc1)NC(C)=O)C(=O)N[C@@H](CC(=O)O)C(=O)N[C@@H](CCC(=O)O)C(=O)N[C@@H](CCC(=O)O)C(=O)N[C@@]1(C)CCCC=CCCC[C@@](C)(C(=O)N[C@H](C(=O)N[C@H](C(=O)N[C@@H](CCC(=O)O)C(=O)N[C@@H](CCSC)C(=O)NCC(=O)N[C@@H](CC(C)C)C(=O)N[C@@H](CC(=O)O)C(=O)N[C@@H](CCCNC(=N)N)C(=O)N[C@H](C(=O)N[C@@H](CCCCN)C(=O)N[C@@H](CCC(=O)O)C(=O)N[C@@H](CC(C)C)C(=O)N2CCC[C@H]2C(=O)N[C@@H](CCC(=O)O)C(=O)N[C@@H](CC(C)C)C(=O)N[C@@H](Cc2c[nH]c3ccccc23)C(=O)N[C@@H](CC(C)C)C(N)=O)[C@@H](C)CC)[C@@H](C)CC)C(C)C)NC(=O)[C@H](CO)NC(=O)[C@H](CCSC)NC(=O)[C@H](CC(C)C)NC1=O) [SP-77],> 700 nM
6,Ac-FIDEEVLM[S5]LVI[S5]MGLDRIKELP-NH2 (staple 9-13; SMILES CC[C@H](C)[C@H](NC(=O)[C@H](Cc1ccccc1)NC(C)=O)C(=O)N[C@@H](CC(=O)O)C(=O)N[C@@H](CCC(=O)O)C(=O)N[C@@H](CCC(=O)O)C(=O)N[C@H](C(=O)N[C@@H](CC(C)C)C(=O)N[C@@H](CCSC)C(=O)N[C@@]1(C)CCCC=CCCC[C@@](C)(C(=O)N[C@@H](CCSC)C(=O)NCC(=O)N[C@@H](CC(C)C)C(=O)N[C@@H](CC(=O)O)C(=O)N[C@@H](CCCNC(=N)N)C(=O)N[C@H](C(=O)N[C@@H](CCCCN)C(=O)N[C@@H](CCC(=O)O)C(=O)N[C@@H](CC(C)C)C(=O)N2CCC[C@H]2C(N)=O)[C@@H](C)CC)NC(=O)[C@H]([C@@H](C)CC)NC(=O)[C@H](C(C)C)NC(=O)[C@H](CC(C)C)NC1=O)C(C)C) [SP-93],> 700 nM
7,Ac-FIDEEVLM[S5]LVI[S5]MGLDRIKELPELW-NH2 (staple 9-13; SMILES CC[C@H](C)[C@H](NC(=O)[C@H](Cc1ccccc1)NC(C)=O)C(=O)N[C@@H](CC(=O)O)C(=O)N[C@@H](CCC(=O)O)C(=O)N[C@@H](CCC(=O)O)C(=O)N[C@H](C(=O)N[C@@H](CC(C)C)C(=O)N[C@@H](CCSC)C(=O)N[C@@]1(C)CCCC=CCCC[C@@](C)(C(=O)N[C@@H](CCSC)C(=O)NCC(=O)N[C@@H](CC(C)C)C(=O)N[C@@H](CC(=O)O)C(=O)N[C@@H](CCCNC(=N)N)C(=O)N[C@H](C(=O)N[C@@H](CCCCN)C(=O)N[C@@H](CCC(=O)O)C(=O)N[C@@H](CC(C)C)C(=O)N2CCC[C@H]2C(=O)N[C@@H](CCC(=O)O)C(=O)N[C@@H](CC(C)C)C(=O)N[C@@H](Cc2c[nH]c3ccccc23)C(N)=O)[C@@H](C)CC)NC(=O)[C@H]([C@@H](C)CC)NC(=O)[C@H](C(C)C)NC(=O)[C@H](CC(C)C)NC1=O)C(C)C) [SP-90],> 700 nM

# Now from value to binder:
row,IC50,Binder
1,> 700 nM,Ac-FIDEQVLA[S5]LVI[S5]AALDRI-NH2 (staple 9-13; SMILES CC[C@H](C)[C@H](NC(=O)[C@H](CCCNC(=N)N)NC(=O)[C@H](CC(=O)O)NC(=O)[C@H](CC(C)C)NC(=O)[C@H](C)NC(=O)[C@H](C)NC(=O)[C@]1(C)CCCC=CCCC[C@](C)(NC(=O)[C@H](C)NC(=O)[C@H](CC(C)C)NC(=O)[C@@H](NC(=O)[C@H](CCC(N)=O)NC(=O)[C@H](CCC(=O)O)NC(=O)[C@H](CC(=O)O)NC(=O)[C@@H](NC(=O)[C@H](Cc2ccccc2)NC(C)=O)[C@@H](C)CC)C(C)C)C(=O)N[C@@H](CC(C)C)C(=O)N[C@@H](C(C)C)C(=O)N[C@@H]([C@@H](C)CC)C(=O)N1)C(N)=O) [SP-70]
2,> 700 nM,Ac-FIDEEVLM[S5]LVI[S5]MAA-NH2 (staple 9-13; SMILES CC[C@H](C)[C@H](NC(=O)[C@H](Cc1ccccc1)NC(C)=O)C(=O)N[C@@H](CC(=O)O)C(=O)N[C@@H](CCC(=O)O)C(=O)N[C@@H](CCC(=O)O)C(=O)N[C@H](C(=O)N[C@@H](CC(C)C)C(=O)N[C@@H](CCSC)C(=O)N[C@@]1(C)CCCC=CCCC[C@@](C)(C(=O)N[C@@H](CCSC)C(=O)N[C@@H](C)C(=O)N[C@@H](C)C(N)=O)NC(=O)[C@H]([C@@H](C)CC)NC(=O)[C@H](C(C)C)NC(=O)[C@H](CC(C)C)NC1=O)C(C)C) [SP-103]
3,> 700 nM,Ac-FIDEEV[Ala(3-Me-diazirin-3-yl)][Nle][S5]LVI[S5][Nle]ALDRI-NH2 (staple 9-13) [SP-71]
4,> 700 nM,Ac-FIDEEVLM[S5]LVI[S5]MALDRIKE-NH2 (staple 9-13; SMILES CC[C@H](C)[C@H](NC(=O)[C@H](CCCNC(=N)N)NC(=O)[C@H](CC(=O)O)NC(=O)[C@H](CC(C)C)NC(=O)[C@H](C)NC(=O)[C@H](CCSC)NC(=O)[C@]1(C)CCCC=CCCC[C@](C)(NC(=O)[C@H](CCSC)NC(=O)[C@H](CC(C)C)NC(=O)[C@@H](NC(=O)[C@H](CCC(=O)O)NC(=O)[C@H](CCC(=O)O)NC(=O)[C@H](CC(=O)O)NC(=O)[C@@H](NC(=O)[C@H](Cc2ccccc2)NC(C)=O)[C@@H](C)CC)C(C)C)C(=O)N[C@@H](CC(C)C)C(=O)N[C@@H](C(C)C)C(=O)N[C@@H]([C@@H](C)CC)C(=O)N1)C(=O)N[C@@H](CCCCN)C(=O)N[C@@H](CCC(=O)O)C(N)=O) [SP-100]
5,> 700 nM,Ac-FIDEEVLM[S5]LVI[S5]MA-NH2 (staple 9-13; SMILES CC[C@H](C)[C@H](NC(=O)[C@H](Cc1ccccc1)NC(C)=O)C(=O)N[C@@H](CC(=O)O)C(=O)N[C@@H](CCC(=O)O)C(=O)N[C@@H](CCC(=O)O)C(=O)N[C@H](C(=O)N[C@@H](CC(C)C)C(=O)N[C@@H](CCSC)C(=O)N[C@@]1(C)CCCC=CCCC[C@@](C)(C(=O)N[C@@H](CCSC)C(=O)N[C@@H](C)C(N)=O)NC(=O)[C@H]([C@@H](C)CC)NC(=O)[C@H](C(C)C)NC(=O)[C@H](CC(C)C)NC1=O)C(C)C) [SP-102]
